Reference: article PMC8142252, “The Arabidopsis thaliana chloroplast division protein FtsZ1 counterbalances FtsZ2 filament stability in vitro” (The Journal of Biological Chemistry, 2021)

Target: T1, AtFtsZ2 (Arabidopsis thaliana FtsZ2-1, full-length mature protein lacking its transit peptide) (Arabidopsis thaliana, UniProt O82533 49-478)
T1 construct: Purified AtFtsZ2 runs as a doublet on SDS-PAGE; also called AtFtsZ2-1; source: E. coli DE3 Rosetta cells overexpressing the E. coli ftsQAZ operon, purified (Ni-NTA); not shown: His6, C-terminal, kept
T1 sequence (looked up): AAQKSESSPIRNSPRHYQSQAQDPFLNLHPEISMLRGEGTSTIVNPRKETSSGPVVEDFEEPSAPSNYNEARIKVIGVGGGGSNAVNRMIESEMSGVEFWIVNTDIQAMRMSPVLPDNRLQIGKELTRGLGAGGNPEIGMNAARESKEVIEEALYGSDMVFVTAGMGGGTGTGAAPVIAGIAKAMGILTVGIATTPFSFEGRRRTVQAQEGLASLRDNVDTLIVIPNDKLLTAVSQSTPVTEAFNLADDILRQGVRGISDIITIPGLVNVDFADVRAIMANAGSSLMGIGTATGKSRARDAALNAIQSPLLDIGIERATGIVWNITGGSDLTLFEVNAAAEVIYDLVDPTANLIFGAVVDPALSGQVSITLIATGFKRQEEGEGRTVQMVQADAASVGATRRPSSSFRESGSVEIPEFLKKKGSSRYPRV
Assay: 90° light scattering; 5 μM AtFtsZ2 (or AtFtsZ2core) mixed with AtFtsZ1, AtFtsZ1 D275A (or AtFtsZ1core) at various ratios before start, HMK buffer, room temperature, started by 10 μM or 500 μM GTP
Conditions: both partners purified

binding result: binds
B1: AtFtsZ1 (Arabidopsis thaliana FtsZ1-1, full-length mature protein lacking its transit peptide) (natural protein, UniProt Q42545 58-433, looked up)
chain: RSKSMRLRCSFSPMESARIKVIGVGGGGNNAVNRMISSGLQSVDFYAINTDSQALLQSSAENPLQIGELLTRGLGTGGNPLLGEQAAEESKDAIANALKGSDLVFITAGMGGGTGSGAAPVVAQISKDAGYLTVGVVTYPFSFEGRKRSLQALEAIEKLQKNVDTLIVIPNDRLLDIADEQTPLQDAFLLADDVLRQGVQGISDIITIPGLVNVDFADVKAVMKDSGTAMLGVGVSSSKNRAEEAAEQATLAPLIGSSIQSATGVVYNITGGKDITLQEVNRVSQVVTSLADPSANIIFGAVVDDRYTGEIHVTIIATGFSQSFQKTLLTDPRAAKLLDKMGSSGQQENKGMSLPHQKQSPSTISTKSSSPRRLFF
notes: also called AtFtsZ1-1; source: E. coli DE3 Rosetta cells overexpressing the E. coli ftsQAZ operon, purified (Ni-NTA); not shown: His6, C-terminal, kept
